Data published in the supplement of paper PMC7125110.
± gives the standard error. For some assays here: Variants at the floor of the assay were thinned out.

B1: glmS ribozyme (parent)
chain: AUAAAAGCGCCAGAACUACAGAAAUGUAGUUGACGAGGAGGAGGUUUAUCGAAUUUUCGGCGGAUGCCUCCAAA

What was measured:
Details in all cases: with glucosamine-6-phosphate
[1] = variants of: B1; assay: kcat; higher = faster cleavage; RNA array
Method in brief: (§1)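 The measurements used barcoded ribozyme variants on sequenced MiSeq chips, transcribed in situ by E. coli RNA polymerase and tracked at 37 °C with a hybridised Cy3 probe. Glucosamine-6-phosphate, 40 μM to 10 mM in HEPES/KCl/Mg(OAc)2 buffer, was flowed in while tiles were imaged over ~14 h. Baseline-normalised signals, also normalised to non-cleaving reference variants, gave per-tile medians that were fit to one- or two-exponential decays for kobs. kcat and KM resulted from weighted Michaelis–Menten fits across concentrations.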

[2] = variants of: B1; assay: KM; higher = weaker cofactor use; RNA array
Method in brief: as §1

[3] = variants of: B1; assay: self-cleavage kobs at 40 uM GlcN6P; higher = faster cleavage; RNA array
Method in brief: as §1

[4] = variants of: B1; assay: self-cleavage kobs at 160 uM GlcN6P; higher = faster cleavage; RNA array
Method in brief: as §1

[5] = variants of: B1; assay: self-cleavage kobs at 640 uM GlcN6P; higher = faster cleavage; RNA array
Method in brief: as §1

[6] = variants of: B1; assay: self-cleavage kobs at 2500 uM GlcN6P; higher = faster cleavage; RNA array
Method in brief: as §1

[7] = variants of: B1; assay: self-cleavage kobs at 10000 uM GlcN6P; higher = faster cleavage; RNA array
Method in brief: as §1

Variant	kcat [1] [s⁻¹]	KM [2] [µM]	self-cleavage kobs at 40 uM GlcN6P [3] [s⁻¹]	self-cleavage kobs at 160 uM GlcN6P [4] [s⁻¹]	self-cleavage kobs at 640 uM GlcN6P [5] [s⁻¹]	self-cleavage kobs at 2500 uM GlcN6P [6] [s⁻¹]	self-cleavage kobs at 10000 uM GlcN6P [7] [s⁻¹]
U65G C67U	0.00306 ± 0.00057	3590 ± 950	3.92e-05 ± 7.9e-06	0.000142 ± 1.8e-05	0.000459 ± 5.7e-05	0.00101 ± 0.00014	0.00248 ± 0.00025
G41C A53C	0.000159 ± 1.5e-05	3660 ± 720			1.93e-05 ± 9.5e-06	6.77e-05 ± 9.6e-06	0.000115 ± 1.5e-05
C8G U57C	< 1e-05		< 1e-05		< 1e-05	< 1e-05	< 1e-05
C10A U30A C68U	7.99e-05 ± 2.3e-05			8.08e-05 ± 2.5e-05			
G13C A53G	0.000174 ± 2.8e-05	3550 ± 1100			2.97e-05 ± 9e-06	7.05e-05 ± 7.7e-06	0.00013 ± 1.9e-05
C11A G59U	0.0133 ± 0.0031	2310 ± 700	0.000273 ± 2.8e-05	0.000683 ± 8.7e-05	0.00335 ± 0.00043	0.00743 ± 0.0012	0.0105 ± 0.0013
G41A U54C	0.000448 ± 5.8e-05	1810 ± 510			0.00013 ± 2.5e-05	0.000223 ± 4.7e-05	0.0004 ± 5.8e-05
U45A G59U	0.00047 ± 0.00017		< 1e-05			5.25e-05 ± 1.3e-05	0.000152 ± 2.4e-05
C16G C71U	0.00252 ± 0.00053	956 ± 300	0.000132 ± 1.8e-05	0.000323 ± 5.6e-05	0.000865 ± 0.00012	0.00228 ± 0.00066	0.00248 ± 0.00036
G32A A52G	0.000151 ± 1.3e-05	1760 ± 480			5.19e-05 ± 2e-05	8.18e-05 ± 1.4e-05	0.000131 ± 1.5e-05
G66C U69G	5.5e-05 ± 1.9e-05			4.18e-05 ± 1.2e-05	8.02e-05 ± 1.2e-05	6.24e-05 ± 1.2e-05	
G59U A64G	6.46e-05 ± 1.1e-05		< 1e-05			7.94e-05 ± 2.1e-05	5.92e-05 ± 9.3e-06
G7U G66U C70G	< 1e-05					< 1e-05	
C10U G66U	< 1e-05			< 1e-05	< 1e-05		< 1e-05
G40A A64G	0.00353 ± 0.0011	3100 ± 1400	7.68e-05 ± 1.3e-05	0.000131 ± 3.3e-05	0.000538 ± 9e-05	0.00188 ± 0.00029	0.00259 ± 0.00038
A33U U55A	0.000138 ± 2.3e-05	2730 ± 1200				7.49e-05 ± 6.9e-06	0.000105 ± 7.9e-06
A12U G66C	0.00201 ± 0.00014	1270 ± 160	6.36e-05 ± 1.1e-05		0.00058 ± 0.00016	0.00145 ± 0.00028	0.00177 ± 0.00022

Variant	kcat [1] [s⁻¹]	KM [2] [µM]	self-cleavage kobs at 40 uM GlcN6P [3] [s⁻¹]	self-cleavage kobs at 160 uM GlcN6P [4] [s⁻¹]	self-cleavage kobs at 640 uM GlcN6P [5] [s⁻¹]	self-cleavage kobs at 2500 uM GlcN6P [6] [s⁻¹]	self-cleavage kobs at 10000 uM GlcN6P [7] [s⁻¹]
A14C U56A	0.00449 ± 0.0013	3990 ± 1600	7.03e-05 ± 9e-06	0.000133 ± 2.8e-05	0.000559 ± 6.3e-05	0.00196 ± 0.00028	0.00318 ± 0.00032
C50U A53U	5.88e-05 ± 7.9e-06	5390 ± 2000	< 1e-05				3.82e-05 ± 8.6e-06
U47C C50A	3.31e-05 ± 5.7e-06	3090 ± 1500					
G37A C58A	1.97e-05 ± 3.4e-06						
U31C C34G	1.37e-05 ± 8.9e-07	1370 ± 240					
C16G C58U	3.48e-05 ± 3.2e-06		< 1e-05			3.89e-05 ± 9.2e-06	3.22e-05 ± 5.6e-06
C11U U54A	0.00189 ± 0.00049	1150 ± 470	8.46e-05 ± 1.3e-05	0.000164 ± 3.1e-05	0.000876 ± 0.00016	0.00164 ± 0.00021	0.00149 ± 0.00021
G41U C70A	0.0306 ± 0.013		0.00288 ± 0.00022	0.00721 ± 0.0009	0.0189 ± 0.0026	0.0568 ± 0.016	
C16G C50G	4.79e-05 ± 1.9e-05					6.05e-05 ± 1.4e-05	
G43U C68U	0.00467 ± 0.00089	1190 ± 320	0.000181 ± 1.5e-05	0.000436 ± 4.8e-05	0.00188 ± 0.00022	0.00344 ± 0.00047	0.00404 ± 0.0004
G29U U45C	0.000348 ± 1.1e-05	2130 ± 200			7.89e-05 ± 3.4e-05	0.000204 ± 0.0001	0.000286 ± 4.9e-05
A33U A53G	3.38e-05 ± 6.8e-06		< 1e-05			3.39e-05 ± 1e-05	2.98e-05 ± 6.7e-06
G29A G32A C71A	0.000259 ± 0.00011				6.03e-05 ± 2.6e-05		0.000201 ± 4.4e-05
A39G G66C	0.00327 ± 0.0016		7.7e-05 ± 2.6e-05	0.000141 ± 3.4e-05	0.000484 ± 9.6e-05	0.00169 ± 0.00033	
A39C C68U	0.000495 ± 6.5e-05	1180 ± 300	2.73e-05 ± 7e-06	6.25e-05 ± 1.3e-05	0.000159 ± 1.7e-05	0.000367 ± 5.1e-05	0.000445 ± 4.9e-05
G44C U47A	8.35e-05 ± 6.6e-06	1270 ± 350				5.07e-05 ± 1.6e-05	7.67e-05 ± 1.8e-05
